In paper PMC13354579 one finds Kd and dH data, which are given here for two substances.

The term Kd denotes the constant that tells how readily two partners part at equilibrium. A high value points to lower affinity.

In test [1] the target is K48-linked triubiquitin (UniProt P0CG48). Put plainly: ITC; MicroCal PEAQ-ITC, 25 °C, 50 mM Tris-HCl pH 7.5, 150 mM NaCl, 250 µM TCEP; DUB in the syringe titrated into K48-linked polyUb in the cell, in other experiments the scarcest species in the cell; n = 2, mean ± SD. On the technique in general: ITC needs no label: the signal is the heat of the interaction.
The target of test [2] is full-length MINDY3 (human) (UniProt Q9H8M7). Described as above.
Sequence of full-length MINDY3 (human) (Q9H8M7 whole entry): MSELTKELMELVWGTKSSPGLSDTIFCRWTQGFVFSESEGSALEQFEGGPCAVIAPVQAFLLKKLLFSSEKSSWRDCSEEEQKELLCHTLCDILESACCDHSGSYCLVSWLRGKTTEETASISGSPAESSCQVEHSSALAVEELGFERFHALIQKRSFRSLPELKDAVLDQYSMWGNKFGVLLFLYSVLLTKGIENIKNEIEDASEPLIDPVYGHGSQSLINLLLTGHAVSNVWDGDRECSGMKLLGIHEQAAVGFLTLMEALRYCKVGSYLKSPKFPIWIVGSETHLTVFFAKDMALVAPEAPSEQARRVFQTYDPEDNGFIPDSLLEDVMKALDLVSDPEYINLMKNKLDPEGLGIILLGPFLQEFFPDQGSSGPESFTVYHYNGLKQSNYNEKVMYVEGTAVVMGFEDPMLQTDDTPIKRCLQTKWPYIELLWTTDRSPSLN

On to “MINDY3^EF-hand (from UniProt Q9H8M7 297-370) (domain or fragment)”, for which the Kd in test [1] stood at 6 µM.

In test [2], “full-length RAD23A (from UniProt P54725 1-363) (natural protein)” displayed a Kd of 12.2 µM and a dH of -1.16 kcal/mol.
